Test results as given in patent US20210388110A1 (published 2021).

B1: TR01H093-E22Hh/none-Hi-Kn010G3/L0011-k0 (antibody, human IgG1, kappa, L234A L235A, N297A)
heavy: QVQLVESGGGLVQPGRSLRLSCAASGFTFSNAWMHWVRQAPGKGLEWVAQIKDKSQNYATYYAESVQGRFTISRDDSKNSLYLQMNSLKTEDTAVYYCRYVHYAAGYGVDAWGQGTTVTVSSASTKGPSVFPLAPSSKSTSGGTAALGCLVKDYFPEPVTVSWNSGALTSGVHTFPAVLQSSGLYSLSSVVTVPSSSLGTQTYICNVNHKPSNTKVDKKVEPKSCDKTHTCPPCPAPEAAGGPSVFLFPPKPKDTLMISRTPEVTCVVVDVSHEDPEVKFNWYVDGVEVHNAKTKPREEQYASTYRVVSVLTVLHQDWLNGKEYKCKVSNKALPAPIEKTISKAKGQPREPQVYTLPPSRCELTKNQVSLSCAVKGFYPSDIAVEWESNGQPENNYKTTPPVLDSDGSFFLVSKLTVDKSRWQQGNVFSCSVMHEALHNHYTQKSLSLSPDYKDDDDK
chain: EPKSSDKTHTCPPCPAPELLGGPSVFLFPPKPKDTLMISRTPEVTCVVVDVSHEDPEVKFNWYVDGVEVHNAKTKPREEQYNSTYRVVSVLTVLHQDWLNGKEYKCKVSNKALPAPIEKTISKAKGQPREPQVCTLPPSRDELTKNQVSLWCLVKGFYPSDIAVEWESNGQPENNYKTTPPVLDSDGSFFLYSKLTVDKSRWQQGNVFSCSVMHEALHNRYTQKSLSLSP
light: DIVMTQSPLSLPVTPGEPASISCRSSQPLVHSNRNTYLHWYQQKPGQAPRLLIYKVSNRFSGVPDRFSGSGSGTDFTLKISRVEAEDVGVYYCGQGTQVPYTFGQGTKLEIKRTVAAPSVFIFPPSDEQLKSGTASVVCLLNNFYPREAKVQWKVDNALQSGNSQESVTEQDSKDSTYSLSSTLTLSKADYEKHKVYACEVTHQGLSSPVTKSFNRGEC
notes: one-arm antibody (single Fab) with Fab-less hinge-Fc chain Hi-Kn010G3
B2: TR01H094-E22Hh/none-Hi-Kn010G3/L0011-k0 (antibody, human IgG1, kappa, L234A L235A, N297A)
heavy: QVQLVESGGGLVQPGRSLRLSCAASGFTFSNAWMHWVRQAPGKGLEWVAQIKDKSQNYATYYAESVSGRFTISRDDSKNSLYLQMNSLKTEDTAVYYCRYVHYAAGYGVDAWGQGTTVTVSSASTKGPSVFPLAPSSKSTSGGTAALGCLVKDYFPEPVTVSWNSGALTSGVHTFPAVLQSSGLYSLSSVVTVPSSSLGTQTYICNVNHKPSNTKVDKKVEPKSCDKTHTCPPCPAPEAAGGPSVFLFPPKPKDTLMISRTPEVTCVVVDVSHEDPEVKFNWYVDGVEVHNAKTKPREEQYASTYRVVSVLTVLHQDWLNGKEYKCKVSNKALPAPIEKTISKAKGQPREPQVYTLPPSRCELTKNQVSLSCAVKGFYPSDIAVEWESNGQPENNYKTTPPVLDSDGSFFLVSKLTVDKSRWQQGNVFSCSVMHEALHNHYTQKSLSLSPDYKDDDDK
chain: EPKSSDKTHTCPPCPAPELLGGPSVFLFPPKPKDTLMISRTPEVTCVVVDVSHEDPEVKFNWYVDGVEVHNAKTKPREEQYNSTYRVVSVLTVLHQDWLNGKEYKCKVSNKALPAPIEKTISKAKGQPREPQVCTLPPSRDELTKNQVSLWCLVKGFYPSDIAVEWESNGQPENNYKTTPPVLDSDGSFFLYSKLTVDKSRWQQGNVFSCSVMHEALHNRYTQKSLSLSP
light: DIVMTQSPLSLPVTPGEPASISCRSSQPLVHSNRNTYLHWYQQKPGQAPRLLIYKVSNRFSGVPDRFSGSGSGTDFTLKISRVEAEDVGVYYCGQGTQVPYTFGQGTKLEIKRTVAAPSVFIFPPSDEQLKSGTASVVCLLNNFYPREAKVQWKVDNALQSGNSQESVTEQDSKDSTYSLSSTLTLSKADYEKHKVYACEVTHQGLSSPVTKSFNRGEC
notes: as for B1
B3: TR01H095-E22Hh/none-Hi-Kn010G3/L0011-k0 (antibody, human IgG1, kappa, L234A L235A, N297A)
heavy: QVQLVESGGGLVQPGRSLRLSCAASGFTFSNAWMHWVRQAPGKGLEWVAQIKDKSQNYAFYYAESVKGRFTISRDDSKNSLYLQMNSLKTEDTAVYYCRYVHYAAGYGVDAWGQGTTVTVSSASTKGPSVFPLAPSSKSTSGGTAALGCLVKDYFPEPVTVSWNSGALTSGVHTFPAVLQSSGLYSLSSVVTVPSSSLGTQTYICNVNHKPSNTKVDKKVEPKSCDKTHTCPPCPAPEAAGGPSVFLFPPKPKDTLMISRTPEVTCVVVDVSHEDPEVKFNWYVDGVEVHNAKTKPREEQYASTYRVVSVLTVLHQDWLNGKEYKCKVSNKALPAPIEKTISKAKGQPREPQVYTLPPSRCELTKNQVSLSCAVKGFYPSDIAVEWESNGQPENNYKTTPPVLDSDGSFFLVSKLTVDKSRWQQGNVFSCSVMHEALHNHYTQKSLSLSPDYKDDDDK
chain: EPKSSDKTHTCPPCPAPELLGGPSVFLFPPKPKDTLMISRTPEVTCVVVDVSHEDPEVKFNWYVDGVEVHNAKTKPREEQYNSTYRVVSVLTVLHQDWLNGKEYKCKVSNKALPAPIEKTISKAKGQPREPQVCTLPPSRDELTKNQVSLWCLVKGFYPSDIAVEWESNGQPENNYKTTPPVLDSDGSFFLYSKLTVDKSRWQQGNVFSCSVMHEALHNRYTQKSLSLSP
light: DIVMTQSPLSLPVTPGEPASISCRSSQPLVHSNRNTYLHWYQQKPGQAPRLLIYKVSNRFSGVPDRFSGSGSGTDFTLKISRVEAEDVGVYYCGQGTQVPYTFGQGTKLEIKRTVAAPSVFIFPPSDEQLKSGTASVVCLLNNFYPREAKVQWKVDNALQSGNSQESVTEQDSKDSTYSLSSTLTLSKADYEKHKVYACEVTHQGLSSPVTKSFNRGEC
notes: as for B1
B4: TR01H096-E22Hh/none-Hi-Kn010G3/L0011-k0 (antibody, human IgG1, kappa, L234A L235A, N297A)
heavy: QVQLVESGGGLVQPGRSLRLSCAASGFTFSNAWMHWVRQAPGKGLEWVAQIKDKSQNYAGYYAESVKGRFTISRDDSKNSLYLQMNSLKTEDTAVYYCRYVHYAAGYGVDAWGQGTTVTVSSASTKGPSVFPLAPSSKSTSGGTAALGCLVKDYFPEPVTVSWNSGALTSGVHTFPAVLQSSGLYSLSSVVTVPSSSLGTQTYICNVNHKPSNTKVDKKVEPKSCDKTHTCPPCPAPEAAGGPSVFLFPPKPKDTLMISRTPEVTCVVVDVSHEDPEVKFNWYVDGVEVHNAKTKPREEQYASTYRVVSVLTVLHQDWLNGKEYKCKVSNKALPAPIEKTISKAKGQPREPQVYTLPPSRCELTKNQVSLSCAVKGFYPSDIAVEWESNGQPENNYKTTPPVLDSDGSFFLVSKLTVDKSRWQQGNVFSCSVMHEALHNHYTQKSLSLSPDYKDDDDK
chain: EPKSSDKTHTCPPCPAPELLGGPSVFLFPPKPKDTLMISRTPEVTCVVVDVSHEDPEVKFNWYVDGVEVHNAKTKPREEQYNSTYRVVSVLTVLHQDWLNGKEYKCKVSNKALPAPIEKTISKAKGQPREPQVCTLPPSRDELTKNQVSLWCLVKGFYPSDIAVEWESNGQPENNYKTTPPVLDSDGSFFLYSKLTVDKSRWQQGNVFSCSVMHEALHNRYTQKSLSLSP
light: DIVMTQSPLSLPVTPGEPASISCRSSQPLVHSNRNTYLHWYQQKPGQAPRLLIYKVSNRFSGVPDRFSGSGSGTDFTLKISRVEAEDVGVYYCGQGTQVPYTFGQGTKLEIKRTVAAPSVFIFPPSDEQLKSGTASVVCLLNNFYPREAKVQWKVDNALQSGNSQESVTEQDSKDSTYSLSSTLTLSKADYEKHKVYACEVTHQGLSSPVTKSFNRGEC
notes: as for B1
B5: TR01H097-E22Hh/none-Hi-Kn010G3/L0011-k0 (antibody, human IgG1, kappa, L234A L235A, N297A)
heavy: QVQLVESGGGLVQPGRSLRLSCAASGFTFSNAWMHWVRQAPGKGLEWVAQIKDKSQNYALYYAESVKGRFTISRDDSKNSLYLQMNSLKTEDTAVYYCRYVHYAAGYGVDAWGQGTTVTVSSASTKGPSVFPLAPSSKSTSGGTAALGCLVKDYFPEPVTVSWNSGALTSGVHTFPAVLQSSGLYSLSSVVTVPSSSLGTQTYICNVNHKPSNTKVDKKVEPKSCDKTHTCPPCPAPEAAGGPSVFLFPPKPKDTLMISRTPEVTCVVVDVSHEDPEVKFNWYVDGVEVHNAKTKPREEQYASTYRVVSVLTVLHQDWLNGKEYKCKVSNKALPAPIEKTISKAKGQPREPQVYTLPPSRCELTKNQVSLSCAVKGFYPSDIAVEWESNGQPENNYKTTPPVLDSDGSFFLVSKLTVDKSRWQQGNVFSCSVMHEALHNHYTQKSLSLSPDYKDDDDK
chain: EPKSSDKTHTCPPCPAPELLGGPSVFLFPPKPKDTLMISRTPEVTCVVVDVSHEDPEVKFNWYVDGVEVHNAKTKPREEQYNSTYRVVSVLTVLHQDWLNGKEYKCKVSNKALPAPIEKTISKAKGQPREPQVCTLPPSRDELTKNQVSLWCLVKGFYPSDIAVEWESNGQPENNYKTTPPVLDSDGSFFLYSKLTVDKSRWQQGNVFSCSVMHEALHNRYTQKSLSLSP
light: DIVMTQSPLSLPVTPGEPASISCRSSQPLVHSNRNTYLHWYQQKPGQAPRLLIYKVSNRFSGVPDRFSGSGSGTDFTLKISRVEAEDVGVYYCGQGTQVPYTFGQGTKLEIKRTVAAPSVFIFPPSDEQLKSGTASVVCLLNNFYPREAKVQWKVDNALQSGNSQESVTEQDSKDSTYSLSSTLTLSKADYEKHKVYACEVTHQGLSSPVTKSFNRGEC
notes: as for B1
B6: TR01H098-E22Hh/none-Hi-Kn010G3/L0011-k0 (antibody, human IgG1, kappa, L234A L235A, N297A)
heavy: QVQLVESGGGLVQPGRSLRLSCAASGFTFSNAWMHWVRQAPGKGLEWVAQIKDKSQNYAPYYAESVKGRFTISRDDSKNSLYLQMNSLKTEDTAVYYCRYVHYAAGYGVDAWGQGTTVTVSSASTKGPSVFPLAPSSKSTSGGTAALGCLVKDYFPEPVTVSWNSGALTSGVHTFPAVLQSSGLYSLSSVVTVPSSSLGTQTYICNVNHKPSNTKVDKKVEPKSCDKTHTCPPCPAPEAAGGPSVFLFPPKPKDTLMISRTPEVTCVVVDVSHEDPEVKFNWYVDGVEVHNAKTKPREEQYASTYRVVSVLTVLHQDWLNGKEYKCKVSNKALPAPIEKTISKAKGQPREPQVYTLPPSRCELTKNQVSLSCAVKGFYPSDIAVEWESNGQPENNYKTTPPVLDSDGSFFLVSKLTVDKSRWQQGNVFSCSVMHEALHNHYTQKSLSLSPDYKDDDDK
chain: EPKSSDKTHTCPPCPAPELLGGPSVFLFPPKPKDTLMISRTPEVTCVVVDVSHEDPEVKFNWYVDGVEVHNAKTKPREEQYNSTYRVVSVLTVLHQDWLNGKEYKCKVSNKALPAPIEKTISKAKGQPREPQVCTLPPSRDELTKNQVSLWCLVKGFYPSDIAVEWESNGQPENNYKTTPPVLDSDGSFFLYSKLTVDKSRWQQGNVFSCSVMHEALHNRYTQKSLSLSP
light: DIVMTQSPLSLPVTPGEPASISCRSSQPLVHSNRNTYLHWYQQKPGQAPRLLIYKVSNRFSGVPDRFSGSGSGTDFTLKISRVEAEDVGVYYCGQGTQVPYTFGQGTKLEIKRTVAAPSVFIFPPSDEQLKSGTASVVCLLNNFYPREAKVQWKVDNALQSGNSQESVTEQDSKDSTYSLSSTLTLSKADYEKHKVYACEVTHQGLSSPVTKSFNRGEC
notes: as for B1

The binders below were run against T1, soluble human CD3ε chain (human, UniProt P07766 23-126, limits assumed) (assay: SPR (Biacore), soluble human CD3ε chain).
T1 construct: also called human CD3 epsilon chain
T1 sequence (P07766 23-126 limits assumed): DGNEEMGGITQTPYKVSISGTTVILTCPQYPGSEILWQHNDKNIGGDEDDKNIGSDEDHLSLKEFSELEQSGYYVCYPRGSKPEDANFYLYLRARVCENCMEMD
For B1, the Kd was 0.068 µM. Work on B2 yielded a Kd of 0.07 µM. B3 showed a Kd of 0.0909 µM. For B4, the Kd was 0.0747 µM. With B5 the Kd was 0.0876 µM. With B6 the Kd was 0.0914 µM.
